Measurements taken from paper PMC6750725.

Biological target: A/equine/NY/49/73 H7N7 hemagglutinin (crystallization construct) (influenza A virus A/equine/NY/49/73 (H7N7))
Experiment: SEC

A/equine/NY/49/73 H7N7 hemagglutinin (crystallization construct) (natural protein)
stoichiometry N: 3
